Test results published in US10889826B2, “Methods and compositions for producing epidermal growth factor (EGF) in soybeans” (ARIZONA BOARD OF REGENTS ON BEHALF OF THE UNIVERSITY OF …, priority 2017, dated 2021).

Key:
Hela cell EGFR [1] = biological target: T1, Hela cell EGFR (Homo sapiens, UniProt P00533); experiment: Immunocytochemistry assay of EGFR internalization in Hela cells; assay type: cell-based; conditions: Hela cells treated 6 hours; FIG. 5C
T1 construct: soybean produced hEGF induces a rapid phosphorylation of Hela cell EGFR; endogenous in cells; host or cells: HeLa cells (American Tissue Culture Collection)
Procedure: (§1) Hela cells (obtained from American Tissue Culture Collection) were cultured in Minimum Essential Media (MEM) complemented with 10% Fetal Bovine Serum (FBS), 100 units/ml penicillin, and 100 μg/ml streptomycin. For western blotting assay, cells grown in 6-well plate were kept in serum free MEM media for 24 hours. Cells were then either kept in serum free medium (control) or stimulated with soymilk alone, soy EGF or commercial recombined hEGF for different time period as indicated. Cells were lysed by directly adding 1×SDS sample buffer (50 mM Tris-HCl, pH 6.8, 10% glycerol, 2% SDS and 5% 13-ME) to the cells after washing 3 times with 1×PBS. EGF bio-activity was determined via EGFR phosphorylation and down-stream AKT phosphorylation. Total EGFR was also measured since EGFR is known to undergo internalization when stimulated with EGF. Antibodies used in western blot are anti-p-EGFR (Tyr1068) (#2234, Cell Signaling Technology), anti-total EGFR (#06-847, Millipore), anti-p-AKT (#4060, Cell Signaling Technology) and anti-Lamin B1 (#13435, Cell Signaling Technology). […] EGFR was labeled using anti-EGFR antibody (#4267, Cell Signaling Technology) and detected with Alexa Fluor 594 Goat anti-rabbit IgG (#A11012, life technology). […]

Hela cell EGFR [2] = biological target: T1, Hela cell EGFR; experiment: EGF bioactivity in Hela cells by western blotting (pEGFR, total EGFR); assay type: cell-based; conditions: for overall EGF bioactivity: internalization, degradation and phosphorylation of EGFR: HeLa cells, compared with commercial rhEGF
Procedure: Hela cells (obtained from American Tissue Culture Collection) were cultured in Minimum Essential Media (MEM) complemented with 10% Fetal Bovine Serum (FBS), 100 units/ml penicillin, and 100 μg/ml streptomycin. For western blotting assay, cells grown in 6-well plate were kept in serum free MEM media for 24 hours. […] Cells were lysed by directly adding 1×SDS sample buffer (50 mM Tris-HCl, pH 6.8, 10% glycerol, 2% SDS and 5% 13-ME) to the cells after washing 3 times with 1×PBS. EGF bio-activity was determined via EGFR phosphorylation and down-stream AKT phosphorylation. Total EGFR was also measured since EGFR is known to undergo internalization when stimulated with EGF. Antibodies used in western blot are anti-p-EGFR (Tyr1068) (#2234, Cell Signaling Technology), anti-total EGFR (#06-847, Millipore), anti-p-AKT (#4060, Cell Signaling Technology) and anti-Lamin B1 (#13435, Cell Signaling Technology). For immunocytochemistry assay, cells were grown on coverslip in 6-well plate and kept in serum free media for 24 hours before stimulation, cells were then either kept in serum free media (control) or stimulated with human or soy EGF for 6 hours. Cells were washed with PBS and fixed with 4% formalin. EGFR was labeled using anti-EGFR antibody (#4267, Cell Signaling Technology) and detected with Alexa Fluor 594 Goat anti-rabbit IgG (#A11012, life technology). The cell nuclei were shown using mounting medium with DAPI (#H-1200, Vectorshield).

[3] = Stability of rhEGF in soymilk, read out by EGFR bioactivity in Hela cells; assay type: physicochemical; conditions: in soymilk over 24 hours; bioactivity compared with control rhEGF; FIG. 5B
Procedure: as §1

ShEGF: human EGF produced in transgenic soybean seeds from a synthetic soybean codon optimized hEGF gene with N-terminal ER signal (SEQ ID NO: 1) (SLSSAENSDSECPLSHDGYCLHDGVCMYIEALDKYACNCVVGYIGERCQYRDLKWWELR; Modified EGF DNA sequence)
internalization of the EGFR (immunohistochemical assay) (Hela cell EGFR [1]): induces internalization of the EGFR comparable to that from control rhEGF | overall EGF bioactivity: internalization, degradation and phosphorylation of EGFR (Hela cell EGFR [2]; listed as EGF protein produced in soybean seed): bioactive and comparable to commercially available hEGF | overall EGF bioactivity: internalization, degradation and phosphorylation of EGFR (Hela cell EGFR [2]; listed as soybean-produced hEGF): indistinguishable from the bioactivity of commercial rhEGF | internalization and degradation of EGFR (decrease in abundance by immunoblot) (Hela cell EGFR [2]; Hela cells, 0.1 μg/ml, FIG. 5B): induces an internalization and degradation of EGFR | EGFR phosphorylation (pEGFR) (Hela cell EGFR [2]; Hela cells, soymilk from ShEGF soybeans at 0.1, 0.05, 0.025 μg/ml, FIG. 5A): induced pEGFR comparable to control rhEGF | EGFR degradation (Hela cell EGFR [2]; Hela cells, soymilk from seeds producing ShEGF at 0.1, 0.05, 0.025 μg/ml, FIG. 5A): induced concentration-dependent EGFR degradation comparable to the effect of rhEGF

rhEGF: commercial recombinant human EGF
degradation of EGF in soymilk [3]: not degraded in soymilk over 24 hours
